Test results: patent US20060263802A1 (CRUCELL HOLLAND B V, published 2006)

What was measured:
Test in all cases: PEPSCAN ELISA, looped 15-mer, 10 ug/ml
looped peptide […] [1] = target: looped peptide […] (rabies virus strain ERA)
looped peptide […] [2] = target: looped peptide […] (rabies virus strain ERA); remark: listed apart in the source
looped peptide […] [3] = target: looped peptide […] (rabies virus strain ERA); remark: listed apart in the source
looped peptide […] [4] = target: looped peptide […] (rabies virus strain ERA); remark: listed apart in the source
looped peptide […] [5] = target: looped peptide […] (rabies virus strain ERA); remark: listed apart in the source
looped peptide […] [6] = target: looped peptide […] (rabies virus strain ERA); remark: listed apart in the source
[7] = target: looped peptide … (rabies virus strain ERA)
[8] = target: looped peptide … (rabies virus strain ERA); remark: listed apart in the source
[9] = target: looped peptide … (rabies virus strain ERA); remark: listed apart in the source
[10] = target: looped peptide … (rabies virus strain ERA); remark: listed apart in the source
[11] = target: looped peptide … (rabies virus strain ERA); remark: listed apart in the source
[12] = target: looped peptide … (rabies virus strain ERA); remark: listed apart in the source
[13] = target: looped peptide … (rabies virus strain ERA); remark: listed apart in the source

B1: human monoclonal antibody CRJA (antibody, V domains shown)
VH: EVQLLESGGGLVQPGGSLRLSCAASGFTFSNYAMSWVRQAPGKGLEWVSAISASGHSTYLADSVKGRFTISRDNSKNTLYLQMNSLRAEDTAVYYCAKDREVTMIVVLNGGFDYWGQGTRVTVSS
VL: EIVLTQSPATLSLSPGERATLACRASQTASRYLAWYQQKPGQAPRLLIYDTSNRATGIPARFSGSGSGTDFTLSISSLEPEDFAVYYCQQRFNWPWTFGQGTKVEFK
How did the OD value (looped peptide […] [1]) turn out when B1 was run?
Its OD value is 320.

And the OD value (looped peptide […] [2])?
The OD value was 468.

And the OD value (looped peptide […] [3])?
Its OD value is 123.

And the OD value (looped peptide […] [4])?
Its OD value is 93.

And the OD value (looped peptide […] [5])?
Its OD value is 152.

What about the OD value (looped peptide […] [6]) of the same binder?
The OD value was 164.

And the OD value [7]?
The OD value was 87.

And the OD value [8]?
Its OD value is 50.

And the OD value [9]?
Its OD value is 54.

What about the OD value [10] of the same binder?
The OD value was 71.

And the OD value [11]?
Its OD value is 79.

And the OD value [12]?
The OD value was 90.

And the OD value [13]?
Its OD value is 82.
